Assay: label from the status in PepcDB records
With “MSTDLAEQPFKFDDVFMQYYPCIYNFIRWLIQDEDCAQDLAQETFLRAFVNLGTRSEHNLSPWLHTIARNLCHDYWRKNKRRGGRELLLQDAFECEDESSKPLAAIENKETAKQIYKILNLLKSEQRTALLLREIEGLSYDDAARVMGISVSAYTSLLNRARNKFIKLIMTPYTKINKGLFTPKEYTVLYRWFGIDAWPEDPEQEIVHKAKHYFDNSALSFDEFRNSLYPFHLDQAILNRVLNKDPQIIGDFGSGTGQFTLKAASSVNLEKTYAFDISPKMVDFSQQRFKREGLRHIQCLPADLNSIPLESETLDIGYCLVVLHHLYDPGKAIKEMTRTLKPGGQLIIGDFGSHNYNLFTKNNKDLWSGFSPDQMTKWFNEAGLENIDIREEKDCIFKSTTQAGELVKIPLLMSSGIKRA” the protein production was “failed”. In the case of “MSTDSDTTPDTEEAREQLIDLAADFYDQFADGEVPTMTIPTRTKSNIVFDEDEQVWVYGDRNSTRSAKTISGAEKILKAVYTIDFLSQQLEEDRSSTLRELYYLSESWDLDEAQFNTQDESNNLIEDLEIVSDVKREDFHMRPEESGAKVMGPLLLREQTNRGDREIHCQDDVGQGGYQIPNNPDTIEFLDNDAKFVLCVETGGMRDRLVENGFDDEYDALVVHLGGQPARATRRLIKRLHDELDLPVTVFTDGDPWSYRIFGSVSYGSIKSAHLSEYLATPEAQFIGIRPEDIVEYELPTDPLSDSDVNALESELEDPRFQTDFWEEQIELQLDINKKAEQQALASRGLDFVTETYLPERLDEMGIL”, the protein production was “failed”. With “MSTDSIVKASNWRLVEVGRVVLIKKGQSAGKLAAIVEIIDQKKVLIDGPKAGVPRQAINLGQVVLTPLTFALPRGARTATVSKKWAAAAVCEKWAASSWAKKIAQRERRAALTDFERFQVMVLRKQKRYTVKKALAKA” the protein production was “failed”. In the case of “MSTDSPLRTTASTCCYCGVGCGVLIEHDGERILGVQGDPRHPANFGRLCSKGASLHLTGDLQARALYPQLRLGKQLARARSDWESALEHAAGRFAETIREHGPDSVAFYISGQLLTEDYYAFNKLARALVGTNNIDSNSRLCMSSAVVGYKRSLGADAPPCSYEDLDCADCVLIAGSNMAFAHPVLFRRLEAAKAARPEMRIVVIDPRRTDTCELADLHLALLPGTDVALFHGILHILLWEDWIDRSFIAEHTEGFADLKELVRDYTPAAVADICGIDRADLQRCAEWIGRSPRFLSLWCMGLNQSSAGSAKNSALINLHLATGKIGRAGCGPFSLTGQPNAMGGRETGSLANLLPGHREAADPGHRAEVAHYWGVEQLPTSPGLSAIELFDAVHDGRIKALWIACTNPAQSLPDQRKIHEALARCPFVVVQEAFAGTETCQYADLLLPAASWGEKEGSVTNSERRISHVRRAVPPPGEARQDWNIVCDFARRLEGHLRPAKPGLFAFADSRSLFDEYKLLTAGRDLDLSGLSYALLDRLGPQQWPFPTGAEQGTARLYADGRFPTASGRAQLVAEPYRAAQEKRDARYPLTLNTGRLRDQWHGMSRTGTCARLFGHEEEALVHLHPEELRRRQLLDGQLVRLKSRRGALVLPVSADDSVRPGQAFLPMHWGDRFLKGLGCNVLTLPAFDPLSKQPELKHAGVQVESVELPWRLFALVETDIQARFEALRALCEVFDHASFSLAGRERPALLVSAAHHEAPGADLLERIDRQLELLDGPILAYDDPRRAIGKRVRLEDGRIVAVRLAGETLARDWLKELWLTGRADSELRRWLLAPLGAAPGRPSQGAGGKTLCSCQNVSQQTVLGGIARGLDLDGLKREFGCGTGCGSCVPEIKRLLAAP”, the protein production was “failed”. In the case of “MSTDVSSAENEGGATVRTARVPKYYRLKKHLLDMTRTQTPGTPVPPERTLAAEFDTSRTTVRQALQELVVEGRLERIQGKGTFVAKPKVSQALQLTSYTEDMRAQGLEPTSQLLDIGYITADDRLAGLLDITAGGRVLRIERLRMANGEPMAIETTHLSAKRFPALRRSLVKYTSLYTALAEVYDVHLAEAEETIETSLATPREAGLLGTDVGLPMLMLSRHSQDRTGQPVEWVRSVYRGDRYKFVARLKRPQD”, the protein production was “not failed”. In the case of “MSTEDALCFTGEEYARHVREYWRGVAESDGFDSEDIRSPVVLTGLFHYDCQSGRRYPDPLLVKRYALLGLHRFNILQGTSFELDALQKFNKTMNLTSSYYITLLANEPGAIPLQKTFQVRVDERKYDTLDLTVAIARLKKDQNEAAETTKEPFVPHFCCSAVSDGVFQGPLPDWPSDDALRHDRNRFYELEKSEWQATDWISLYLELLILATDRGMFGVAQTGLPQVQILKVVIETEEENEKPLDKRLNARRAHVYITFTGLPKSPRLVEIGEHVERKAIIRRVIDDSGYLTLLGKFWSGKDTEQRSKTRQSEEKVESSQKRSRLC”, the protein production was “failed”. For “MSTIFDIRNLRLPQLSRASVVIGSLVVVLALAAGIVGVRLYQKLTNNTVVAYFTQANALYVGDKVQIMGLPVGSIDKIEPAGDKMKVTFHYQNKYKVPANASAVILNPTLVASRNIQLEPPYRGGPVLADNAVIPVERTQVPTEWDELRDSVSHIIDELGPTPEQPKGPFGEVIEAFADGLAGKGKQINTTLNSLSQALNALNEGRGDFFAVVRSLALFVNALHQDDQQFVALNKNLAEFTDRLTHSDADLSNAIQQFDSLLAVARPFFAKNREVLTHDVNNLATVTTTLLQPDPLDGLETVLHIFPTLAANINQLYHPTHGGVVSLSAFTNFANPMEFICSSIQAGSRLGYQESAELCAQYLAPVLDAIKFNYFPFGLNVASTASTLPKEIAYSEPRLQPPNGYKDTTVPGIWVPDTPLSHRNTQPGWVVAPGMQGVQVGPITQGLLTPESLAELMGGPDIAPPSSGLQTPPGPPNAYDEYPVLPPIGLQAPQVPIPPPPPGPDVIPGPVPPTPAPVGAPLPAEAGGGQ”, the protein production was “failed”. For “MSTKELLFSFHGRIDRKTYWIWNVIYYISIIGFGAGISKLFPAFSYLLLPIFLLVLLIPDLAITTKRWHDRDKSIYWLGLNIPLVIGRIATPMTSPMAQEPSTPQLFIASISLICGLWILIECGFLKGTSGPNKYGPEPQ”, the protein production was “not failed”. In the case of “MSTLRATETHRASQSAWEVFLVFLRLGLTSFGGPVAHLGYFRDAFVTRRRWLTEHAYSDIVALCQFLPGPASSQVGMVVGLSRAGYPGALAAWVGFTLPSAIALILFALGLSHYGNLVPPSALHGLKVAAVAVVAQAVWGMARSLCPDAPRITLMILAAVAVTLIPSPWCQVGVMVVAGMVGAQRFRTAQVPPHEPLSIPVGHGAAIGFLLLFAGLLAGLPVVASLIPNHALALVDAFYRAGALVFGGGHVVLPLLQATVVPTGWVNNDTFLAGYGAAQAVPGPLFTFAAFLGAAGGPAPTGWIGGIVCLLAIFAPSFLLVFGALPFWERLRRHAGTRAALAGVNAAVVGLLLSALYQPVWTSAIHAPADFALALLALAALTVWRVPPWAVVTGCALAGWGMHVGGVA”, the protein production was “failed”. With “MSTMTATSGRAKRPQKPITLVGVDVYVITEDGIPKFDEYGPFKIEFISNRGTKVWPGYVSPDLMLVNWYRCRFTATRPVTDKDVDAFVGELGKKHLWSAVQKLWNYGDEAGFSKAY” the protein production was “failed”. With “MSTPAPEQMLSAWQVGIAALLILVNGALSIGLGLGLERRLAWAAVRTVVQLLLIGFVLQWVFASAHWAVVLAVIALMTLIAGHATGSRGARDYAGLRLDGTLSVFGSTWLIGAIGLVAVLQARPWYTPQYAIPIMGMILGNTLTGVGLALERMTGELIATRDQVETLLALGGTRWEAARNAARAAVRAGMTPIINQMSVVGVVSLPGMMTGQVLAGQSPLEAVRYQIVIMFLLAASSGLGTVAAVLLAYRRLFSREHQLLSARIVQRAPGVH” the protein production was “failed”. With “MSTTDNAFSATLEPIDTPKTTLKQRWWHIMDNWKVGIVPLPLFLLAGGLIALDCLGGKLPSDIVVMVATLAFFGFACGEFGKRLPVLGKLGAAAICATFIPSALVHYGLLPDVVIESTTKFYKSTNILYLYICCIIVGSIMSMNRTTLIQGFLKIFFPMLCGEVVGMLVGIGVGTLLGMEPFQVFFFIVLPIMAGGVGEGAIPLSMGYAALMHMEQGVALGRVLPMVMLGSLTAIVISGCLNQLGKRFPHLTGEGQLMPNRSHETRSLSESEGVSGKTDVGTLASGALLAVLLYMMGMLGHKLIGLPAPVGMLFLAVLLKLANVVSPRLQEGSQMVYKFFRTAVTYPILFAVGVAITPWQELVNAFTLTNLLVIVSTVSALVATGFLVGKKIGMHPIDVAIVSCCQSGQGGTGDVAILTAGNRMSLMPFAQIATRIGGAINVSLGLLFLSHYLA” the protein production was “failed”. With “MSTTGKNTTAAATDTVTERPPVFSVDGLWKVFGPKAARVPADPDLTALSPAELRSRTGCTAAVADVSFDVRKGEVFVVMGLSGSGKSTLVRCLTRLIEPTAGSIVIDGEDVRAMDRSRLRELRRHRAAMVFQHFGLLPHRTVLDNVAYGLEVQGMGRAERRERAAAIVAKVGLEGLEQRRPGQLSGGQRQRVGLARALAVDPEVLLFDEPFSALDPLIRRDMQEEVVRLHREEGRTMVFITHDLQEALKLGDRIALMRDGRVVQLGTPEEIVGSPADDYVREFVRDVPREQVLTVRTAMRPAANADEAGTGPAIRPEATVSEAIEAVARAGSAARVMSDGRCLGVVDAADLLSVVAGTAAAGSRAAGAARVGAAATGERREPTDPRPATTEEPV” the protein production was “failed”. With “MSTTLLRTIQLNQFSLLGTSLLRRRRSNNFSVRSCGSQTTTTHEAKQSSPTRVAPKNHKSNQLDEILRDYEAVIGIETHVQLSTLTKAFCSCSNNYGSYPNTSICPVCMGLPGALPVLNSKVVEFGVRLGLALNCDLSLKSKFDRKQYFYPDLPKGYQISQFDIPIASGGYVDVDIPLEFGGGHRRFGITRVHMEEDAGKLLHSDTGDYSQVDLNRAGVPLLEIVSEPDMRSGIEAAEYACEMQRIARYLGVSNGNMQEGSLRCDVNISIRPIGQAEFGTKVEIKNLNAFSAISRAIDFEISRQALLYNQGKADQIVTETRLWEEGAQKTVTMRKKEGLADYRYFPEPDLPEVILTQEYVDSIRASLPELPEAKRRRYEAMGLGMQDVLFLANDVSVAEYFDAVIGKGAEVKLAANWIMSDIAAYLKNEKLSINDIKLTPQELAELIAAIKDGTISGKIGKEILFELLAKGGTVKGMIKAKDLVQITDPAEIEKMVIQVVSENPKQLEQYRSGKTKLQGYFAGQVMKMSKGKANPGLLNKILLEKLNAKD” the protein production was “failed”. In the case of “MSTVAFHTLGCKVNHYETEAIWQLFKQGGYERTEYEKKADVYVINTCTVTNTGDKKSRQVIRRAVRQNPDAVICVTGCYAQTSPAEIMAIPGVDIVVGTQDREKMLGYIEEFRKERQPINAVRNIMKTRVYEELDVPYFTDRTRASLKIQEGCNNFCTFCIIPWARGLMRSRDGKEVIKQAQQLVDAGYKEIVLTGIHTGGYGEDIKDYNLAGLLRDMEAEVGGLKRLRISSIEASQISDEVIEVLDKSEVVVRHLHIPLQSGSNTVLKRMRRKYTMEFFQERLDRLKEALPGLAITSDVIVGFPGETEEEFMETYNFIKENRFSELHVFPYSKRTGTPAARMEDQVPEDVKNDRVHRLIELSNQLAKEYASQFEGEVLEIIPEEQFKEGDREGLYVGYTDNYLKIVFEGSEELIGKLVKVKITKAGYPYNEAQFVRVLEDDVKKESASALEHHHHHH”, the protein production was “failed”. For “MSTVRSIYYRGSLEHCNYTCSYCPFGRKSVSADTTEDQEALDRFISRIGGWKYGSLRILIIPYGEAMIHRYYREGIMRLAAMPHVIGVSCQTNLSFSVSRFLDEAEAEQADVSKFRFWASYHPEMVGVGEFASKVEMLRAAGIGVCAGAVGDPSAKEQIRKLRQLLDPSVYLFVNAMQGLRKPLSEEDIRFFGEIDNLFDYDRRNAKACLDGCVGGRETLFIDRKGDMYACPRSGIRMGNFYDDSTSDFQPFCLRKVCDCYIAFSNLCDTPLRRMMGDGALWRIPERKKVEAVFFDVDGTLTDAQGRIPDRTVSVLEYMAKRLPLYLSTALPVSHAKKRLGNVFGLFSGGVFADGGLLCYGETIECVPIANPMTAGFPGCRVTRYTREGKVFKYAVLAPNTREAVRWLTELDEEAYQLYQEGRLLTVVDSKASKKNGLITLCARLGISLREVLVVGNTMHDWPMMSVAGYSCAVMDAEEKLRKLSGYVLNPDSIPVFFDILEHHHHHH”, the protein production was “failed”.

From a protein production outcome set (Wang et al. 2014)
